From PMC11737846 come the findings set out here.

The assay addresses recombinant hemolysin co-regulated protein 1 variant B (rHcp1^(variant B)) of Burkholderia pseudomallei (Burkholderia pseudomallei (clinical isolate DR0089)). As to the kind of experiment: […]) at 10 mg/ml in PBS pH 7.2; […].

Usually stoichiometry N stands for the number of molecules, sites or subunits per partner or assembly. Turning to “recombinant hemolysin co-regulated protein 1 variant B (rHcp1^(variant B)) of Burkholderia pseudomallei (natural protein)”, the stoichiometry N amounted to 6.
